The values below come from US12522647B2, “Beta-arrestin mutants” (PAUL SCHERRER INSTITUT, priority 2019, dated 2026).

The target in the assay is T1, β2-adrenergic receptor (β2AR, B2AR) (Homo sapiens, UniProt P07550).
T1 construct: expressed in transfected cells; host or cells: HEK293 cells (transient co-transfection, Lipofectamine 2000)
Kind of assay: BRET arrestin recruitment assay: isoproterenol-induced recruitment of GFP-arrestin-3 WT or mutants to RLuc8-β2AR. In kind it is cell-based. Conditions: for Potency (pEC50 ± Std. error): isoproterenol concentration giving half-maximal arrestin recruitment to β2AR, BRET AUC over 19.5 min, isoproterenol 10 pM to 10 μM; for Recruitment to B2AR compared to wild-type arrestin-3 (in words): isoproterenol concentration-response curves, FIG. 1; for Efficacy (Emax ± Std. error) in %, normalized to WT: maximal isoproterenol-induced recruitment to β2AR, WT arrestin-3 at 10 μM isoproterenol set to 100%. On the procedure: […] were seeded onto poly-L-lysine coated, white, 96-well plates at a density of ˜25,000 cells per well. […] The day following transfection, cell culture medium was exchanged with fresh medium. Another 24 h later cell culture medium was replaced with assay buffer (HBSS+20 mM HEPES and pH 7.4) and cells were treated with 5 μM cell-permeable substrate Coelenterazine 400A (Cayman Chemical), which is catalysed by the BRET donor RLuc8, resulting in the emission of light (λmax=410 nm). BRET measurement was performed in a plate reader PheraStar FSX (BMG Biotech) with the optical module (BRET2 plus, 515-30, 410-80). At t=4.5 min, isoproterenol (Tocris Bioscience) was added at increasing concentrations to the cells (from 10 pM to 10 μM). BRET ratio was determined by calculating the ratio of the light intensity emitted by the GFP (515 nm) over the light intensity emitted by the Rluc8/Coelenterazine 400A (410 nm). […] The coefficient of determination R^2 can range between 0 and 1 and represents the quality of the fitting between the experimental values (marks, FIG. 1) and the non-linear regression analysis (curves, FIG. 1). Experiments were performed in technical duplicates in two independent experiments.
An arrestin recruitment assay based on Bioluminescence Resonance Energy Transfer (BRET) was performed to compare the recruitment efficiencies of arrestin-3 double and triple mutants with wild-type arrestin-3 towards B2AR.
The recruitment responses can be defined by two pharmacological parameters: potency and efficacy. In general, efficacy (Emax) is a measure of the maximum effect that is expected from a compound/drug. […] Potency is often given as the EC50 value, which defines the amount of compound required to produce 50% of that compound's maximal effect. For simpler illustration, the pEC50 value, which is the negative logarithm of the EC50 in molar concentrations, is shown.
The potency (pEC50) represents the molar concentration of isoproterenol necessary to obtain half of the total recruitment of arrestin-3 or efficiency (Emax) for each arrestin.
For orientation: BRET reads energy transfer from a luciferase to a nearby fluorophore.

Positions count from the first letter of the chain named. Numbers in names are those of the source.

On to “Double mutant A: Arrestin-3 double mutant containing T299A and I386A when compared to human wt arrestin-3”, for which the “Potency (pEC50 ± Std. error)” value was found to be 7.1±0.03; the “Recruitment to B2AR compared to wild-type arrestin-3 (in words)” value is recorded as “increased recruitment efficacy”; the “Efficacy (Emax ± Std. error) in %, normalized to WT” value amounted to 131.5±1.82%.

B1: Triple mutant B: Arrestin-3 triple mutant containing T299A, I386A and R166A when compared to human wt arrestin-3 (protein)
chain: MGEKPGTRVFKKSSPNCKLTVYLGKRDFVDHLDKVDPVDGVVLVDPDYLKDRKVFVTLTCAFRYGREDLDVLGLSFRKDLFIATYQAFPPVPNPPRPPTRLQDRLLRKLGQHAHPFFFTIPQNLPCSVTLQPGPEDTGKACGVDFEIRAFCAKSLEEKSHKRNSVALVIRKVQFAPEKPGPQPSAETTRHFLMSDRSLHLEASLDKELYYHGEPLNVNVHVTNNSTKTVKKIKVSVRQYADICLFSTAQYKCPVAQLEQDDQVSPSSTFCKVYTITPLLSDNREKRGLALDGKLKHEDANLASSTIVKEGANKEVLGILVSYRVKVKLVVSRGGDVSVELPFVLMHPKPHDHIPLPRPQSAAPETDVPVDTNLIEFDTNYATDDDAVFEDFARLRLKGMKDDDYDDQLC
modifications: Arrestin-3 triple mutant B containing T299A, I386A and R166A
Regarding B1, the “Potency (pEC50 ± Std. error)” value is listed as 7.3±0.06; the “Recruitment to B2AR compared to wild-type arrestin-3 (in words)” value is recorded as “increased recruitment efficacy”; the “Efficacy (Emax ± Std. error) in %, normalized to WT” value came out at 103.0 ± 2.53%. Besides, the EC50 (converted from pEC50, isoproterenol-induced recruitment to β2AR, read-out: Potency expressed as isoproterenol concentration) is 50.1 nM.

B2: Triple mutant D: Arrestin-3 triple mutant containing T299A, I386A and R393A when compared to human wt arrestin-3 (protein)
chain: B1 chain with A166R, R393A
modifications: Arrestin-3 triple mutant D containing T299A, I386A and R393A
Turning to B2, the “Potency (pEC50 ± Std. error)” value stood at 7.2 ± 0.03 and the “Efficacy (Emax ± Std. error) in %, normalized to WT” value is given as 89.2 ± 1.23%.

B3: Triple mutant C: Arrestin-3 triple mutant containing T299A, I386A and D298A when compared to human wt arrestin-3 (protein)
chain: B1 chain with A166R, D298A
modifications: Arrestin-3 triple mutant C containing T299A, I386A and D298A
As to B3, the “Potency (pEC50 ± Std. error)” value was determined as 7.2 ± 0.04 and the “Efficacy (Emax ± Std. error) in %, normalized to WT” value is listed as 108.9 ± 1.84%.
